# From publication PMC11643816, “Determination of Lactoferrin Using High-Frequency Piezoelectric Quartz Aptamer Biosensor Based on Molecular Bond Rupture”
# T1: alpha-lactalbumin (UniProt P00711)
# T1 sequence: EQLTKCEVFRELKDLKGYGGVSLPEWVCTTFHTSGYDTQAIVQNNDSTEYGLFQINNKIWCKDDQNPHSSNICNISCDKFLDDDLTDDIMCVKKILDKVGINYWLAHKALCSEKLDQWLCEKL
# B1: aptamer II (ssDNA)
# DNA: AGGCAGGACACCGTAACCGGTGCATCTATGGCTACTAGCTTTTCCTGCCT
# modifications: 5'-SH-(CH2)6 as printed
# B2: aptamer I (ssDNA)
# DNA: TGGTGCTGCCCCTAGTCTCCGGCTGCTTCTTGG
# modifications: 5'-SH-(CH2)6
# How the values were obtained:
# alpha-lactalbumin = target: T1, alpha-lactalbumin; test: QCM bond rupture sandwich; conditions: 100 ng/mL; sandwich with aptamer II beads; 5'-SH-(CH2)6; 30 °C, 70 min per binding step; aptamer I 3 μmol/L on gold with MCH block; aptamer II beads stored in 10 mmol/L PBS; binding buffer, salt and pH not stated
# lactoferrin (LF) [1] = target: T2, lactoferrin (LF) (UniProt P24627 20-708); test: QCM bond rupture sandwich; cyclic voltammetry; aptamer II on magnetic beads, LF captured by aptamer I; 1180 Hz shift at 100 ng/mL LF; 30 °C, 70 min per binding step; aptamer I 3 μmol/L on gold with MCH block; aptamer II beads stored in 10 mmol/L PBS; binding buffer, salt and pH not stated; conditions: protein: commercial
# T2 sequence (P24627 20-708): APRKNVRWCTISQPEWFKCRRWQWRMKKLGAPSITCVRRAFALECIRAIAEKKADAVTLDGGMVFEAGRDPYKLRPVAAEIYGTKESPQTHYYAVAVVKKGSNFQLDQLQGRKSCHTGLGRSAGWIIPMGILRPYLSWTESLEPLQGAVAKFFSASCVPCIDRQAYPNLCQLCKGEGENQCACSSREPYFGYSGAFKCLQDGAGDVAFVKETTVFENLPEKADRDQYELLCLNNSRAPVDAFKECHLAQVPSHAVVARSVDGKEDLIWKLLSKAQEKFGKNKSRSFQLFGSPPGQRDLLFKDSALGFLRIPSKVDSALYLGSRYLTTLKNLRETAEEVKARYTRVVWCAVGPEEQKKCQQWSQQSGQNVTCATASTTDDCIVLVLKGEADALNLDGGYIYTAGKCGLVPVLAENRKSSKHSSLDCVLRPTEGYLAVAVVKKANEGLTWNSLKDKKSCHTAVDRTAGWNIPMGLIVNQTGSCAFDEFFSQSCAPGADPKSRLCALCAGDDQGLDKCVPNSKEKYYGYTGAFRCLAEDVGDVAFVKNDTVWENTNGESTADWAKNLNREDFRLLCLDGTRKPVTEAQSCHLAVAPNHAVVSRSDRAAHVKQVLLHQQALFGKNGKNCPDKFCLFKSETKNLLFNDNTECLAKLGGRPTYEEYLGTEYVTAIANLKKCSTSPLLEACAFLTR
# lactoferrin (LF) [2] = target: T2, lactoferrin (LF); test: QCM bond rupture sandwich; cyclic voltammetry; aptamer I on gold, 100 ng/mL LF; 30 °C, 70 min per binding step; aptamer I 3 μmol/L on gold with MCH block; aptamer II beads stored in 10 mmol/L PBS; binding buffer, salt and pH not stated; conditions: protein: commercial
molecule,measurement,setting,value
TGGTGCTGCCCCTAGTCTCCGGCTGCTTCTTGG [aptamer I],binding signal (% of LF signal),alpha-lactalbumin,8.39
B1,binding result,lactoferrin (LF) [1],binds
B2,binding result,lactoferrin (LF) [2],binds
